Laboratory results as given in patent US20250304717A1, “CAMPTOTHECIN DERIVATIVE AND LIGAND-DRUG CONJUGATE” (HAINAN SIMCERE ZAIMING PHARMACEUTICAL CO., LTD., priority 2022, published 2025).
Like-named read-outs stand apart in the source and are kept apart here.

Experiments:
[1] = biological target: human ROR1 on stably transfected cell strain MCF7-hROR1 clone 2G2 (human) (UniProt Q01973); assay: flow cytometry (FACS) on MCF7-hROR1 clone 2G2 cells, identification of the stably transfected clone
SKBR3 tumor cell = assay: Binding of anti-HER2 ADC and antibody with SKBR3 tumor cell by FACS; parameters: species or system human
Description: SKBR3 cells (from ATCC) were collected, counted, and plated in a 96-well plate (Corning, 3795) at 2×10^5 cells/well. The serially diluted sample to be detected was added and incubated at 4° C. for 1 h. After the mixture was washed twice with ice PBS, Alexa Fluor-647 goat anti-human Fc secondary antibody (JacksonImmuno, 109-605-098) was added, and the mixture was incubated at 4° C. for 1 h. After the mixture was washed twice with ice PBS, the cells were resuspended, and the mean fluorescence intensity (MFI) was analyzed using a flow cytometer (BD FACSCanto™ II). Data were analyzed by four-parameter curve fitting using Graphpad Prism software to give EC50 values.

MCF7-hROR1 clone 2G2 = assay: FACS identification of MCF7 cell line stably transfected with human ROR1 protein; format: binding
Description: A nucleotide sequence encoding the amino acid sequence of human ROR1 (SEQ ID NO: 105) was cloned into a pLVX lentiviral vector, and viral particles were prepared in HEK293T cells. After lentivirus infection, the MCF7 cell line (purchased from Chinese Academy of Science), was selectively cultured in a DMEM (Gibco, Cat. No. 11995073) medium containing 5 μg/mL puromycin (Gibco, Cat. No. A1113803) and 10% (w/w) fetal bovine serum (ExCell Bio, Cat. No. FND500) for 1 week. Positive cell populations with different expression levels were sorted on a flow cytometer FACS Aria III (purchased from BD Biosciences) using ROR1-Ab-1 and goat anti-mouse IgG (H+L) antibody (Jackson, Cat. No. 115605006) and cultured in 96-well plates at 37° C. with 5% (v/v) CO2. After about 2 weeks, a portion of the cells were selected for expansion, and positive cell populations with better growth, higher fluorescence intensity, and better homogeneity were selected, further expanded and cryopreserved in liquid nitrogen.

[2] = tested on: OVCAR3 subcutaneous tumor model; assay: Efficacy in OVCAR3 subcutaneous tumor model-1; format: in vivo, Balb/c nude mice; details: 3 mg/kg, single intravenous injection
Source text: Experimental reagent: Human ovarian cancer OVCAR3 cells were purchased from ATCC, RPMI-1640 medium was purchased from Gibco (Cat. No. A104910), fetal bovine serum was purchased from Excell (Cat. No. FND500), penicillin-streptomycin was purchased from Gibco (Cat. No. 15140122), bovine insulin was purchased from Yeasen (Cat. No. 40107ES60), 0.25% trypsin-EDTA was purchased from Gibco (Cat. No. 25200-072), D-PBS (phosphate-buffered saline without calcium and magnesium ions) was purchased from Hyclone (Cat. No. SH30256.01), and Matrigel was purchased from Corning (Cat. No. 356237).
Animal information: Balb/c nude mice, female, 5-6 weeks, weight about 14-20 g, purchased from Beijing Vital River Biotechnology Co., Ltd. The mice were bred in SPF-rated environment with air exhaust for each cage individually. All animals had free access to standard certified commercial laboratory diets and water.
Cell culture: The human ovarian cancer OVCAR3 cell strain was cultured in vitro under the conditions of RPMI-1640 added with 20% fetal bovine serum, 1% penicillin-streptomycin, and […] bovine insulin, and an incubator at 37° C. with 5% CO2. The cells were digested with a 0.25% trypsin-EDTA digestive solution once a week for passaging as per conventional practice. When the cell saturation was 80%-90% and a required amount was achieved, the cells were collected and counted.
Cell inoculation: 0.1 mL of OVCAR3 cell suspension (containing 1×10^7 cells, RPMI-1640: Matrigel, volume ratio 1:1) was inoculated subcutaneously into the axilla of each mouse. On day 26 after inoculation of the cells, the mice were randomly grouped and administrated based on tumor volume.
The day when random grouping was performed was day 0.
Tumor diameters were measured twice weekly using a vernier caliper. The tumor volume was calculated using the following formula: V=0.5a×b^2, where a and b represent the long diameter and short diameter of the tumor, respectively. Mouse body weight was measured twice weekly.

[3] = 37° C., 100 μg/mL
Description: ADC molecules (final concentration: 100 μg/mL) were separately incubated with human plasma (Oribiotech, PB021-C) and monkey plasma (Shinuoda Bio, SND-X0107) in an incubator at 37° C. The day of incubation was defined as day 0. Samples were taken on days 7, 14 and 28 and tested for the free small molecule.
300 μL of an internal standard working solution (acetonitrile preparation) was added to 20 μL of the sample, and the mixture was vortexed for mixing for 5 min and centrifuged for 5 min (14000 rpm). 4 μL of the supernatant was analyzed by LC-MS/MS (API 6500+).

Molecule: IgG subtype control (antibody)
- Mean fluorescence intensity of cells [1]: 54.7

Molecule: Pertuzumab: anti-human HER2 monoclonal antibody; VH SEQ ID NO: 3, VL SEQ ID NO: 4 [reference compound]
- EC50 (SKBR3 tumor cell): 3.73 nM

B1: ROR1-Ab-1: anti-human ROR1 monoclonal antibody, variable region sequence from patent WO2020198531A2; SEQ ID NO: 80/81 (antibody, V domains shown)
VH: QVQLQESGPGLVKPSQTLSLTCTVSGYAFTAYNIHWVRQAPGQGLEWMGSFDPYDGGSSYNQKFKDRLTISKDTSKNQVVLTMTNMDPVDTATYYCARGWYYFDYWGHGTLVTVSS
VL: DIVMTQTPLSLPVTPGEPASISCRASKSISKYLAWYQQKPGQAPRLLIYSGSTLQSGIPPRFSGSGYGTDFTLTINNIESEDAAYYFCQQHDESPYTFGEGTKVEIK
- Mean fluorescence intensity of cells (MCF7-hROR1 clone 2G2): 26497

B2: ADC-DS: comparator CDH6 antibody-drug conjugate of Table 9, DAR 7.5 (conjugate, chains of the INN, looked up)
VH: EVQLVQSGAEVKKPGASVKVSCKASGYTFTRNFMHWVRQAPGQGLEWMGWIYPGDGETEYAQKFQGRVTITADTSTSTAYMELSSLRSEDTAVYYCARGVYGGFAGGYFDFWGQGTLVTVSS
VL: DIQMTQSPSSLSASVGDRVTITCKASQNIYKNLAWYQQKPGKAPKLLIYDANTLQTGVPSRFSGSGSGSDFTLTISSLQPEDFATYFCQQYYSGWAFGQGTKVEIK
modifications: deruxtecan payload, DAR 7.5
- Mean tumor volume (mm^3) Day 0 ([2]; Table 23): 154.4 mm^3
- Mean tumor volume (mm^3) Day 4 ([2]; Table 23, Day 4): 211.3 mm^3
- Mean tumor volume (mm^3) Day 7 ([2]; Table 23, Day 7): 194.1 mm^3
- Mean tumor volume (mm^3) Day 11 ([2]; Table 23, Day 11): 159.5 mm^3
- Mean tumor volume (mm^3) Day 14 ([2]; Table 23, Day 14): 131.5 mm^3
- Mean tumor volume (mm^3) Day 18 ([2]; Table 23, Day 18): 95.5 mm^3
- Mean tumor volume (mm^3) Day 22 ([2]; Table 23): 73.6 mm^3
- Mean tumor volume (mm^3) Day 25 ([2]; Table 23, Day 25): 66.0 mm^3
- Mean tumor volume (mm^3) Day 28 ([2]; Table 23, Day 28): 77.8 mm^3
- TGI (%) Day 28 ([2]; Table 23, Day 28): 110.6%
- Mean tumor volume (mm^3) Day 0 ([2]; Table 24): 145.0 mm^3
- Mean tumor volume (mm^3) Day 5 ([2]; Table 24, Day 5): 165.9 mm^3
- Mean tumor volume (mm^3) Day 8 ([2]; Table 24, Day 8): 153.4 mm^3
- Mean tumor volume (mm^3) Day 12 ([2]; Table 24, Day 12): 91.4 mm^3
- Mean tumor volume (mm^3) Day 16 ([2]; Table 24, Day 16): 56.2 mm^3
- Mean tumor volume (mm^3) Day 19 ([2]; Table 24, Day 19): 41.2 mm^3
- Mean tumor volume (mm^3) Day 22 ([2]; Table 24): 28.9 mm^3
- Mean tumor volume (mm^3) Day 27 ([2]; Table 24, Day 27): 23.4 mm^3
- TG (%) Day 27 ([2]; Table 24, Day 27): 134.2%
- Free small molecule % ([3]; Human plasma, incubation 0 day): 0.59%
- Free small molecule % ([3]; Human plasma, incubation 7 days): 0.72%
- Free small molecule % ([3]; Human plasma, incubation 14 days): 1.21%
- Free small molecule % ([3]; Human plasma, incubation 28 days): 1.90%
- Free small molecule % ([3]; Monkey plasma, incubation 0 day): 0.64%
- Free small molecule % ([3]; Monkey plasma, incubation 7 days): 2.28%
- Free small molecule % ([3]; Monkey plasma, incubation 14 days): 4.03%
- Free small molecule % ([3]; Monkey plasma, incubation 28 days): 9.66%
